US9156883B2, “Binding molecules for human factor VIII and factor VIII-like proteins” (DYAX CORP., priority 1999, dated 2015)
Positions of bridges follow the written chain, without caps; N, C: chain ends. No end group written: not given here. *: point of attachment. NHNH2 = NN*

Target: T1, REFACTO® (Homo sapiens, UniProt P00451)
T1 construct: amino acids 1-743 and 1638 through 2332 of human factor VIII; purchased Genetics Institute, Inc. (Cambridge, Mass.)
T1 sequence (P00451 20-762): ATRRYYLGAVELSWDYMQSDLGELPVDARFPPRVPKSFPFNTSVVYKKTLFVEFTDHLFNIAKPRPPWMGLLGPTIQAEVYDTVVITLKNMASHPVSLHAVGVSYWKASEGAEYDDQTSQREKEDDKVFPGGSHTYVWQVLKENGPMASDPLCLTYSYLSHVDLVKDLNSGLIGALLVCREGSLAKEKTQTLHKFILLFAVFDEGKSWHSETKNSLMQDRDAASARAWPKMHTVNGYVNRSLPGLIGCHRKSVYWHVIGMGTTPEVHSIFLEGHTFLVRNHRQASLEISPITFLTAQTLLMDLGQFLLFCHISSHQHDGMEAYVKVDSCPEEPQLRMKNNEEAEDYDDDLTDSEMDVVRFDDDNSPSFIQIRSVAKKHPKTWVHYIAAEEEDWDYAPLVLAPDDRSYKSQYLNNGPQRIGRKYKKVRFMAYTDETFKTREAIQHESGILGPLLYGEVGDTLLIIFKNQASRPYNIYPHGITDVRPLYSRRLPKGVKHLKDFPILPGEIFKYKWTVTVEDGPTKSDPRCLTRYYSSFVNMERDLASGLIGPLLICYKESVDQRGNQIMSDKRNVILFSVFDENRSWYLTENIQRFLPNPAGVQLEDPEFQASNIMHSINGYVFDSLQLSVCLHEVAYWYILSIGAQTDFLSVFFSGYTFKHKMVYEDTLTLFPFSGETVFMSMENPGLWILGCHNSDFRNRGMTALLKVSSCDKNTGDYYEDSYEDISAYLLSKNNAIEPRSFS
T1 sequence (P00451 1657-2351): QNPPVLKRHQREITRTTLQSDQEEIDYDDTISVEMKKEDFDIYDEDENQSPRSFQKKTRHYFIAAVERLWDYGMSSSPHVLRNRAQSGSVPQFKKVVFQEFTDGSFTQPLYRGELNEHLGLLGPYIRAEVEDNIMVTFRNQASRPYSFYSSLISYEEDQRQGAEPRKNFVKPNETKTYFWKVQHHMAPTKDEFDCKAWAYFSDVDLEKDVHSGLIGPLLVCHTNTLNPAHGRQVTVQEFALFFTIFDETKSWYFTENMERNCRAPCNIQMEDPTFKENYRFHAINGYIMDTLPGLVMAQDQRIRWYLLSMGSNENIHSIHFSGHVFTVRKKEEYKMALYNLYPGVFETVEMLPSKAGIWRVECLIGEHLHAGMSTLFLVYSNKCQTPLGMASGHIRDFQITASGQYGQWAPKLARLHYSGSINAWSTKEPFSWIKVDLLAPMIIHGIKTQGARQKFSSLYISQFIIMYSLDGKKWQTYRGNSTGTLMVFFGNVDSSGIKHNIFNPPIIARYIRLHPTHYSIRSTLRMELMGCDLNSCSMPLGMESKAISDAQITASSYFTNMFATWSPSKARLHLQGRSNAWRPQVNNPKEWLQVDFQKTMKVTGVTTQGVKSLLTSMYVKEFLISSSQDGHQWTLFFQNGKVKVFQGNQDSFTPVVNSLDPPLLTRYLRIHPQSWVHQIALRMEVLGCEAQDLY
Assay: Batch binding and elution of REFACTO® with immobilized polypeptide ligands (factor VIII sandwich ELISA)
Details: for % of Input Recovered in: Eluate: Buffer A, 50% ethylene glycol, pH 6.3, 15 minutes; for % of Input Recovered in: Unbound: REFACTO® ~50 U in Buffer 1, 1 h RT, supernatant after binding; for % of Input Recovered in: Total: Unbound, Wash and Eluate fractions together; for % of Input Recovered in: Wash: one wash with Buffer 1
Source text: A commercial ELISA kit (IMUBIND fVIII ELISA kit, Product #884, American, Inc., Greenwich, Conn.) developed to detect factor VIII was used according to the manufacturer's specifications in order to detect both the REFACTO® and the nhfVIII targets. The kit employs a sandwich ELISA assay in which the target is captured by an immobilized monoclonal antibody and the captured target is detected with a second monoclonal antibody-horseradish peroxidase (HRP) conjugate. Addition of the peroxidase substrate and its subsequent reaction with the HRP produces a blue color (detected at 630 nm) which changes to yellow (detected at 450 nm) on addition of the 0.5N sulfuric acid stop solution. Color response is calibrated with factor VIII standards provided by the manufacturer.
REFACTO® binding was tested in Buffer 1. The binding of both REFACTO® and nfhVIII were tested using three affinity resins prepared as in Example II, using the affinity peptides CS-454, CS-456, and CS-458 immobilized on Toyopearl Formyl 650-M medium. Ligand density for each polypeptide was 1.79 mg/ml (0.67 μmol/ml), 3.69 mg/ml ([…]) and 3.15 mg/ml (1.17 μmol/ml) respectively.
For each of the three immobilized peptides tested, peptide-beads from […] of a 50% slurry of Toyopearl-coupled polypeptide suspension were centrifuged briefly (30 seconds at 2000×g at room temperature), the supernatant fluid was removed, and the beads (pellets) were washed two times. For each wash, the beads were resuspended in 500 μl of Buffer 1 and centrifuged as before.
The stock solution of REFACTO® was diluted to a final concentration of 200 U/ml in Buffer 1 and 250 μl of the diluted solution (˜50 U total) was added to a washed pellet of each of the peptide-beads. The suspension was incubated on an end-over-end mixer at RT for one hour, after which binding period the beads were pelleted by centrifugation (30 seconds, 2000×g) and the supernatant solutions, representing the unbound fraction (“Unbound” in Table 7, below), were removed and retained for assay of unbound factor VIII activity.
The pelleted beads were washed one time by adding 250 μl of Buffer 1, mixed briefly and the suspension centrifuged as before. The supernatant solutions (“Wash” in Table 7) were removed and retained for assay of factor VIII activity.
The washed pellets were resuspended in 250 μl of Buffer A (20 mM L-Histidine-HCl, 250 mM NaCl, 20 mM CaCl2, 0.01% Tween 80, 50% ethylene glycol, pH 6.3) and incubated on an end-over-end mixer for 15 minutes at room temperature. At the end of the elution period, the suspensions were centrifuged as above. The supernatant solutions (“Eluate” in Table 7) were removed and retained for assay of eluted factor VIII activity.
The starting (diluted) REFACTO® solution (Input) and each sample (Unbound, Wash, and Eluate) taken as described above were diluted 1:1400 in Assay Diluent (provided with kit), then subjected to ELISA using the commercial factor VIII assay kit.

## AEGTGDHLCGAWFRPCDADPGPEGGGS-NHNH2 (disulfide 9-16 (inferred)) [CS-454]
  % of Input Recovered in: Eluate: 49%
  % of Input Recovered in: Unbound: 24%
  % of Input Recovered in: Total: 85%

## AEGTGDFCWVFAFDHCHDPGPEGGGS-NHNH2 (disulfide 8-16 (inferred)) [CS-458]
  % of Input Recovered in: Eluate: 47%
  % of Input Recovered in: Unbound: 20%
  % of Input Recovered in: Total: 76%
  % of Input Recovered in: Wash: 10%

## AEGTGDFGCSWLFPCPFDPGPEGGGS-NHNH2 (disulfide 9-15 (inferred)) [CS-456]
  % of Input Recovered in: Eluate: 24%
  % of Input Recovered in: Unbound: 47%
  % of Input Recovered in: Total: 91%
  % of Input Recovered in: Wash: 20%
